In patent publication CN111732655A (INST MILITARY MEDICINE ACADEMY MILITARY SCIENCES PLA, dated 2020):
Several values for one entry are separate records, joined by “and”; a condition that tells them apart may be missing. Identical values can stand only once.

Legend:
SARS-CoV-2真病毒的S蛋白 = SARS-CoV-2真病毒的S蛋白 (SARS-CoV-2, UniProt P0DTC2 14-1273); experiment: cell-based or functional assay
[1] = biological target: 全长SARS-CoV-2 S蛋白 (GenBank ID: QHD43416.1)，展示于HIV假病毒 (SARS-CoV-2, UniProt P0DTC2 14-1273); experiment: cell-based or functional assay

B1: 单克隆抗体4B7 (抗SARS-CoV-2全人源单克隆抗体) (antibody, V domains shown)
VH: EVQLVESGGGLVQPGGSLRLSCAASGFPFSSYAMSWVRQAPGKGLEWVSAITGSGGSTYYADSVKGRFTISRDNSKNTLYLHMNSLRAEDTAVYYCAKDDYGDYVLGAFDIWGQGTTVTVSS
VL: QSALTQPASVSGSPGQSITISCTGTSSDVGTYKFVSWYQQHPGKAPKLMIYEGSKRPSGVSNRFSGSKSGNTASLTISGLQAEDEADYYCCSYAGSSTLVFGGGTKLTVL
病毒感染的细胞模型上EC50 (Vero E6细胞, 结晶紫染色细胞活率) (SARS-CoV-2真病毒的S蛋白): 0.38 ug/ml and 2.5 nM
假病毒模型上EC50 (luciferase, ACE2-293T细胞) [1]: 0.052 ug/ml and 0.35 nM
